How the values were obtained:
PD-1-mFc [1] = molecular target: T1, PD-1-mFc (human, UniProt Q15116 25-170, limits assumed); assay: ELISA, PD-1-mFc coated
T1 construct: also called human PD-1-mFc
Procedure: Then the microplate coated with antigens was washed once with PBST, and then blocked with a PBS solution containing 1% BSA as blocking solution at 37° C. for 2 h. After blocking, the microplate was washed 3 times with PBST. The microplate containing the test antibodies was incubated at 37° C. for 30 min, and then washed 3 times with PBST. […] The microplate was put into a microplate reader immediately, and the OD value of each well in the microplate was read at 450 nm. The data were analyzed and processed by SoftMax Pro 6.2.1.

PD-1-mFc [2] = molecular target: T1, PD-1-mFc; assay: BLI (Fortebio), PD1-mFc on AMC sensor, antibody 0.62-50 nM, 30 C
Procedure: The sample dilution buffer was PBS (0.02% Tween-20, 0.1% BSA, pH 7.4). […] The data were analyzed by 1:1 model fitting to obtain affinity constants.

human PD-1-mFc-biotin = human PD-1-mFc-biotin (human, UniProt Q15116 25-170, limits assumed, biotin label, site not stated); assay: competitive ELISA, blocking of PD-1-mFc-biotin binding to coated PD-L1-mFc
Procedure: After incubation, the microplate was blocked with a PBS solution containing 1% BSA at 37° C. for 2 h. […] The antibody was serially diluted to 7 concentrations in a gradient ratio of 1:3 on a dilution plate with 10 μg/mL as the starting concentration, and a blank control was set. […] Then the mixture after reaction was added to the coated microplate, and the microplate was incubated for at 37° C. for 30 min. After incubation, the plate was washed three times with PBST and dried. SA-HRP (KPL, 14-30-00) working solution was added, and the plate was incubated at 37° C. for 30 min. After incubation, the plate was washed four times and patted dry. Then TMB (Neogen, 308177) was added in the dark for chromogenesis for 5 min, and a stop solution was added to terminate chromogenic reaction. Then the microplate was put into a microplate reader immediately, and the OD value of each well in the microplate was read at 450 nm. The data were analyzed and processed by SoftMax Pro 6.2.1.

T1 sequence (Q15116 other isoform, or with tags, fused parts or gaps limits assumed): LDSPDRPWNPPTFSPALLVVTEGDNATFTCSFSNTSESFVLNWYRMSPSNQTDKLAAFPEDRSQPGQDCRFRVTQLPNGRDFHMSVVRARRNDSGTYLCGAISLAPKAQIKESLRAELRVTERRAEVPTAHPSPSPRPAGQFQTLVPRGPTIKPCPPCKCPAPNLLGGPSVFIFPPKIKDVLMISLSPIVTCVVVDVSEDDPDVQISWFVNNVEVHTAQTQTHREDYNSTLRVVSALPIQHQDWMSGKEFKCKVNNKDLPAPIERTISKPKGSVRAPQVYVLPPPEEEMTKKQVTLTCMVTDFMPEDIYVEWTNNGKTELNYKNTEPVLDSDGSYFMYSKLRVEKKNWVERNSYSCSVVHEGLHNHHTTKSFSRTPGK
Chain of human PD-1-mFc-biotin (Q15116 other isoform, or with tags, fused parts or gaps limits assumed): as above

B1: 14C12H1L1(hG1TM) (antibody, human IgG1, kappa)
heavy: not shown
light: DIQMTQSPSSMSASVGDRVTFTCRASQDINTYLSWFQQKPGKSPKTLIYRANRLVSGVPSRFSGSGSGQDYTLTISSLQPEDMATYYCLQYDEFPLTFGAGTKLELKRTVAAPSVFIFPPSDEQLKSGTASVVCLLNNFYPREAKVQWKVDNALQSGNSQESVTEQDSKDSTYSLSSTLTLSKADYEKHKVYACEVTHQGLSSPVTKSFNRGEC
notes: Humanized anti-PD-1 IgG1 with L234A/L235A/G237A
EC50 (PD-1-mFc [1]): 0.031 nM
Kd (PD-1-mFc [2]): 0.0445 nM
EC50 (human PD-1-mFc-biotin): 2.23 nM

From US20230151111A1 (AKESO BIOPHARMA, published 2023)
